Like-named read-outs stand apart in the source and are kept apart here.
Columns and labels:
[1] = biological target: T1, recombinant human TFPI (tissue factor pathway inhibitor) (human, UniProt P10646 29-304); assay: cell-based or functional assay
[2] = biological target: T1, recombinant human TFPI (tissue factor …); assay: cell-based or functional assay; remark: listed apart in the source
[3] = biological target: T1, recombinant human TFPI (tissue factor …); assay: cell-based or functional assay; remark: listed apart in the source
[4] = biological target: T1, recombinant human TFPI (tissue factor …); assay: cell-based or functional assay; remark: listed apart in the source
[5] = biological target: T1, recombinant human TFPI (tissue factor …); assay: cell-based or functional assay; remark: listed apart in the source
[6] = biological target: T1, recombinant human TFPI (tissue factor …); assay: cell-based or functional assay; remark: listed apart in the source
[7] = biological target: T1, recombinant human TFPI (tissue factor …); assay: cell-based or functional assay; remark: listed apart in the source
[8] = biological target: T1, recombinant human TFPI (tissue factor …); assay: SPR, Biacore T-200; IgG captured on protein A (CM5), TFPI as analyte
Description: Dissociation of the TFPI associated with the antibody was induced by running 10 mM glycine-HCl (pH 1.5) at a flow rate for 30 seconds. The affinities in terms of kinetic rate constants (Kₒₙ and Koff) and equilibrium dissociation constant (KD) were evaluated using Biacore T-200 evaluation software, and the results are shown in Table 24 below.

[9] = biological target: T1, recombinant human TFPI (tissue factor …); assay: cell-based or functional assay; remark: listed apart in the source
[10] = biological target: T1, recombinant human TFPI (tissue factor …); assay: cell-based or functional assay; remark: listed apart in the source
[11] = biological target: T1, recombinant human TFPI (tissue factor …); assay: cell-based or functional assay; remark: listed apart in the source

- A405, TF/FVIIa/FX complex assay, Ab 50 nM [1]: 0.681
- A405, TF/FVIIa/FX complex assay, Ab 100 nM [1]: 0.846
- FXa assay % of FXa alone, 2.5 nM Ab, 10 nM TFPI [2]: 5.2%
- FXa assay % of FXa alone, 5 nM Ab, 10 nM TFPI [2]: 8%
- FXa assay % of FXa alone, 10 nM Ab, 10 nM TFPI [2]: 52.7%
- FXa assay % of FXa alone, 20 nM Ab, 10 nM TFPI [2]: 78.4%
- FXa assay OD, 2.5 nM Ab, 10 nM TFPI [2]: 0.045
- FXa assay OD, 5 nM Ab, 10 nM TFPI [2]: 0.0695
- FXa assay OD, 10 nM Ab, 10 nM TFPI [2]: 0.459
- FXa assay OD, 20 nM Ab, 10 nM TFPI [2]: 0.682
- % of Normalized, TF/FVIIa/FX complex assay, Ab 1.56 nM [3]: 16%
- % of Normalized, TF/FVIIa/FX complex assay, Ab 3.13 nM [3]: 17.5%
- % of Normalized, TF/FVIIa/FX complex assay, Ab 6.25 nM [3]: 19.9%
- % of Normalized, TF/FVIIa/FX complex assay, Ab 12.5 nM [3]: 27.1%
- % of Normalized, TF/FVIIa/FX complex assay, Ab 25 nM [3]: 96.6%
- % of Normalized, TF/FVIIa/FX complex assay, Ab 50 nM [3]: 94.8%
- % of Normalized, TF/FVIIa/FX complex assay, Ab 100 nM [3]: 98%
- FXa assay % of FXa alone, 2.5 nM Ab, 10 nM TFPI [4]: 8.4%
- FXa assay % of FXa alone, 5 nM Ab, 10 nM TFPI [4]: 40.8%
- FXa assay OD, 2.5 nM Ab, 10 nM TFPI [4]: 0.0605
- FXa assay OD, 5 nM Ab, 10 nM TFPI [4]: 0.293
- FXa assay OD, 10 nM Ab, 10 nM TFPI [4]: 0.605
- % of Normalized, TF/FVIIa/FX complex assay, Ab 1.56 nM [5]: 15.6%
- % of Normalized, TF/FVIIa/FX complex assay, Ab 3.13 nM [5]: 16.5%
- % of Normalized, TF/FVIIa/FX complex assay, Ab 6.25 nM [5]: 18.2%
- % of Normalized, TF/FVIIa/FX complex assay, Ab 12.5 nM [5]: 24.8%
- % of Normalized, TF/FVIIa/FX complex assay, Ab 25 nM [5]: 86.5%
- % of Normalized, TF/FVIIa/FX complex assay, Ab 50 nM [5]: 103%
- % of Normalized, TF/FVIIa/FX complex assay, Ab 100 nM [5]: 104%
- FXa assay % of FXa alone, 2.5 nM Ab, 10 nM TFPI [6]: 7.3%
- FXa assay % of FXa alone, 5 nM Ab, 10 nM TFPI [6]: 25.2%
- FXa assay % of FXa alone, 10 nM Ab, 10 nM TFPI [6]: 83.6%
- FXa assay % of FXa alone, 20 nM Ab, 10 nM TFPI [6]: 85.5%
- FXa assay OD, 2.5 nM Ab, 10 nM TFPI [6]: 0.06
- FXa assay OD, 5 nM Ab, 10 nM TFPI [6]: 0.208
- FXa assay OD, 10 nM Ab, 10 nM TFPI [6]: 0.691
- FXa assay OD, 20 nM Ab, 10 nM TFPI [6]: 0.707
- A405, TF/FVIIa/FX complex assay (FX 5 nM), Ab 1.56 nM [7]: 0.05
- A405, TF/FVIIa/FX complex assay (FX 5 nM), Ab 3.13 nM [7]: 0.048
- A405, TF/FVIIa/FX complex assay (FX 5 nM), Ab 6.25 nM [7]: 0.056
- A405, TF/FVIIa/FX complex assay (FX 5 nM), Ab 12.5 nM [7]: 0.079
- A405, TF/FVIIa/FX complex assay (FX 5 nM), Ab 25 nM [7]: 0.216
- A405, TF/FVIIa/FX complex assay (FX 5 nM), Ab 50 nM [7]: 0.652
- A405, TF/FVIIa/FX complex assay (FX 5 nM), Ab 100 nM [7]: 0.81
- Kd [8]: 30.1 pM
- % of Normalized, TF/FVIIa/FX complex assay, Ab 1.56 nM [9]: 14.7%
- % of Normalized, TF/FVIIa/FX complex assay, Ab 3.13 nM [9]: 17.5%
- % of Normalized, TF/FVIIa/FX complex assay, Ab 6.25 nM [9]: 20.2%
- % of Normalized, TF/FVIIa/FX complex assay, Ab 12.5 nM [9]: 31.6%
- % of Normalized, TF/FVIIa/FX complex assay, Ab 25 nM [9]: 99.8%
- % of Normalized, TF/FVIIa/FX complex assay, Ab 50 nM [9]: 102%
- % of Normalized, TF/FVIIa/FX complex assay, Ab 100 nM [9]: 103%
- FXa assay % of FXa alone, 2.5 nM Ab, 10 nM TFPI [10]: 8.9%
- FXa assay % of FXa alone, 5 nM Ab, 10 nM TFPI [10]: 63.1%
- FXa assay % of FXa alone, 10 nM Ab, 10 nM TFPI [10]: 85.3%
- FXa assay % of FXa alone, 20 nM Ab, 10 nM TFPI [10]: 88.5%
- FXa assay OD, 2.5 nM Ab, 10 nM TFPI [10]: 0.0715
- FXa assay OD, 5 nM Ab, 10 nM TFPI [10]: 0.509
- FXa assay OD, 10 nM Ab, 10 nM TFPI [10]: 0.688
- FXa assay OD, 20 nM Ab, 10 nM TFPI [10]: 0.714
- FXa assay % of FXa alone, 2.5 nM Ab, 10 nM TFPI [11]: 6.7%
- FXa assay % of FXa alone, 5 nM Ab, 10 nM TFPI [11]: 26.6%
- FXa assay % of FXa alone, 10 nM Ab, 10 nM TFPI [11]: 82.3%
- FXa assay % of FXa alone, 20 nM Ab, 10 nM TFPI [11]: 84%
- FXa assay OD, 2.5 nM Ab, 10 nM TFPI [11]: 0.051
- FXa assay OD, 5 nM Ab, 10 nM TFPI [11]: 0.203
- FXa assay OD, 10 nM Ab, 10 nM TFPI [11]: 0.626
- FXa assay OD, 20 nM Ab, 10 nM TFPI [11]: 0.639
B1: clone 1023 (antibody, V domains shown)
VH: EVQLVESGGGLVKPGGSLRLSCAASGFTFSSYAMNWVRQAPGKGLEWVGTITTGGSYTYYADSVDGRFTISRDNAKNSLYLQMNSLRAEDTAVYYCARQDGNFLMDYWGQGTLVTVSS
VL: DVVMTQTPLSLPVTLGQPASISCKSSQSLLDIDGKTYLNWLQQRPGQSPKRLIYLVSKLDSGVPDRFTGSGSGTDFTLKISRVEAEDVGVYYCWQGTHFPFTFGQGTKVEIKR
notes: scFv on yeast at selection; human IgG4/kappa IgG as purified

— patent US20180030151A1 (MOGAM INSTITUTE FOR BIOMEDICAL RESEARCH, published 2018)
